Laboratory results taken from the nanobody polyreactivity screen of Harvey et al. (2022).

Experiment: yeast display, Sf9 membrane polyspecificity reagent, FACS + sequencing; frameworks hold sequencing errors
In short: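 Nanobodies from a synthetic yeast display library (Saccharomyces cerevisiae BJ5465), induced 36–48 hours with galactose, were stained 1 hour at 4 °C with 10% biotinylated, detergent-solubilized Sf9 membrane reagent, enriched on streptavidin microbeads, then FACS-sorted. Anti-HA (expression) and streptavidin (reagent binding) fluorescence set low and high (top ~1%) gates. Polyreactivity labels come from the gate of origin. Genes were colony-PCR amplified, MiSeq 2 × 250 sequenced and filtered by CDR length.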

Row | Sequence | polyreactivity (PSR sort gate)
1 | QVQLVESGGGLVQAGGSLRLSCAASGFIFVQYAMGWYRQAPGKERELVAAISKGGGSTYYADSVKGRFTISRDNAKNTVYLQMNSLKPEDTAVYDCNADKVTRVTYWDDSWGQGTQVTVSS | high polyreactivity
2 | QVQLVESGGGLVQAGGSLRLSCAASGSTFGGYAMGWYIQAPGKERELVADISRRVGSTYYADSVKGRFTISRDNAKNTVYLQMNSLKPEDTAVYYCNVPRIVIISGPSSPFRYYWGQGTQVTVSS | high polyreactivity
3 | QVQLVESGGRLVQAGGSLRLSCAASGFILLAYAMGWYRQAHGKERELVAAITSGGSTHYADSVKGRFTISRDNAKNTVYLQMNSLKPEDTAVYYCAKDTVFRYSGNTYGYWGQGTQVTVSS | low polyreactivity
4 | QVQLVESGGGLVQAGGSLRISCAASGSTNEYAMGWYRQAPGKERELVAAITWSGGRTYYADSVKGRFTISRDNAKNTVYLQMNSLKPEDTAVYYCAKAYYARHGRYTYYSWGQGTQVTVSS | high polyreactivity
5 | QVQLVESGGGLVQAGGSLRLSCAASGSTFYAYAMGWYRQAPGKEWELVAAITYSGGTPYYADSVKGRFTISRDNAKNTVYLQMNSLKPEDTAVYYCAARYRGLTGHIDGYWGQGTQVTVSS | low polyreactivity
6 | QVQLVESGGGLVQAGGSLRLSCAASGSIFNYYAMGWYRQAPGKERELVAGITSVGSTYYADSVKGRFTISRDNAKNTVYLQMNSLKPEDTAVYYCAAGYWYGMYYWGQGTQVTVSS | high polyreactivity
7 | QVQLQESGGGLVQAGGSLRLSCAASGIIFDNPNMGWYRQAPGKERELVATINSGATTNYADSVKGRFTISRDNENNTVYLQMNSLIPEDTAVYYCAVDLSPTYFYFWGQGTQVTVSS | high polyreactivity
8 | QVQLVESGGGLVQAGGSLRLSCAASGSIFRYYAMGWYIQAPGKERELVAAISYSGGTTYYADSVKGRFTISRDNAKNTVYLQMNSLKPEDTAVYYCAVPLIGVDGYAYDYWGQGTQVTVSS | low polyreactivity
9 | QVQLVESGVGLVQAGGSLRLSCAASGSTFKYYGMGWYRQAPGKERELVASISSSGTRTYYADSVKGRFTISSDNAKNTVYLQMNSLKPEDTAVYYCAADSYATYFLYDSWGQGTQVSVSS | low polyreactivity
10 | QVQLVESGGGLFQAGGSLRLSCAASGSIFDVNAMGWYRQAPGKEREFVAAISDSGGSTYYADSVKGRFTMSRDNAKNTVSLPMNSLKPEDTAVYYCNADWSWYNYYDFDYWGQGTQVTVSS | low polyreactivity
11 | QVQLVESGGGLVQAGGTLRLSCAASGSTFTGNAMGWYRQAPGKERELVASISTGGSTNYADSVKGRFTISRDNAKNTVYLQMNSLKPEDTAVYYCAKRIRYNWTFDDWGQGTQVTVSS | low polyreactivity
12 | QDQLVESGGGLVQAGGSLRLSCAASGRIFRRNTQGWSRQAPGKERELVAAITSSGGSTFADSVKGRFTISRDNAKNTVYLQMNSLKPEDTAVYYCATYVAYHRGYRTYDHWGQGTQVTVSS | low polyreactivity
13 | QVQLVESGGGLVQAGGSLRLSCAASGFTFRYYTMGWYRQAPGKERELVASITWRGGSTYYADSVKARFTISRDNAKNTVYLQMNSMKPEDTAVYYCNAERPYQYYPGIYRWYYYWGQGTQVTVSS | low polyreactivity
14 | QVQLVESGGGLVQAGGSLRLSCAASGSTFTPNVMGWSRQAPGKERELVAAINSSGGSTFYADSVKGRFTISRDNAKNTVYLQMNSLKPEDTAVYYCAASWHTPTVYDEYYYWGQGTQVTVSS | low polyreactivity
15 | QVQLVESGGGLVQEVGSLRISCAASGRIFYVYSMGWYRQAPGKERELVAAITSGGRTDYADSVKGRFTISRDNAKNTVYLQLNSLKPEDTAVYYCAAGGGWNGHRHRWLYGYGYWGQGTQVTVSS | high polyreactivity
16 | QVQLVESGGGLVQAGGSLRLSCAAAGRTFYSYAMGWYRQAPGKEREFVAAINWSGTSTYADSVKGRFTISRDNAKNTVYLQMTSLKPEDTAVYYCAADLPAEYYHWGQGTQVTVSS | high polyreactivity
17 | QVQLVESGGGLVQSGGSLRLSCAASGITFFEYAMGWYRQAPGKERELVAVITSGGSTNYADSVKGRFTISRDNAKNTVYLQMNSLKPEDTAVYYCNALVVKYRWWYDYYYWGQGTQVTVSS | low polyreactivity
18 | QVQLVESGGGLVQAGGSLRLSCAASGGIFGAYAMGWYRQAPGKERELVAASDLTDGDTYYADSVKGRFTSSRDNAKNTVYLQMNSLKPEATAVYYCAAEALYWVVDALDYEGDYWGQGTQVTVSS | high polyreactivity
19 | QVQLVESVGGLVQAGGILRLSCAASGNTFPAYAMGWYRQAPGKERELVATISWSTGSTNYADSVKGRFTISRDTAKNTVYLQMNSLKPEDTAVYYCAASYWCYEYDYWGLGTQVTVSS | low polyreactivity
20 | QVQLVESGGGLVQAGGSLRLSCAASGRIFHIYAMGWYRQAPGKERELVAAISSDGSTYYADSVKGRFTISRDNAKNTVYLQMNSLKPEDTAVYYCAVESPQGRQCYEYWGQGTQVTVSS | low polyreactivity
21 | QVQLVESGGGLVQAGGSLRLSCAASGFILQTYAMGWYRQAPGKERELVAAITSGARTYYADSVKGRFTISRDNAKNTVYLQMNSLKPEDTAVYYCAASIWLYRYYYWGQGTQVTVSS | high polyreactivity
22 | QVQLVESGGGLVQAGGSLRLSCAASGSTFHPNTMGWYRQAPGKERELGARISSGGSTNYADSVKGRFTISRDNAKNTVYLQMNSLKPEDTAVYYCAARTAFSGARGRGGYWGQGTQVTVSS | high polyreactivity

Row | Sequence | polyreactivity (PSR sort gate)
23 | QVQLVESGGGLVQAGGSLRLSCAASGFTFQNYAMGWYSQAPGKERELVAAITYSGGSTYYADSVKGRFTISRDNAKNPVYLQMHSLKPEDTAVYYCAKKASYWWGYEYWGQGTQVTVSS | low polyreactivity
24 | QVQLQESRGGLVQEGGSLRLSSAASGNISPPAHMGWYRPAPGKQRELVASIGNGRTTNYADSVKGRFTISRHNANNTVYLQMYSLKPDETAVYYCSAVRYEYNPYDYWGQGTQVTVSS | low polyreactivity
25 | QVQLVESGGGLVQAGGSLRLSCAASGRTFYGYAMGWYRQAPGKERELVAAISKRGGSTYYADSVKGRFTISRDNAKNTVYLQMNSLKPEDTAVYYCARPYLGPYSGYDYNYWGQGTQVTVSS | high polyreactivity
26 | QVQLVESGGGLVQAGGTLRLSCAASGSIFTHYAMGWYRQAPGKERELVAAISRRGGSTYYADSVKGRFTNSRDNAKNTVYLQMNSLKPEDSAVYYCAKSPDTAKEYDYWGQGTQVTVSS | high polyreactivity
27 | QVQLVESGGGLVQAGGSLRLSCAASGSTFYGYAMGWYRQAPGKERELVAAISSSATRTYYADSVKGRFTISRDNAKNTVYLQMNSLKPEDTAVYYCAAVSTLLYYHYYTRDYWGQGTQVTVSS | high polyreactivity
28 | QVHLVESGGGLGHAGGSLLLSCAASGSIFGRNAMGWYRQAPGKERELVADIWNGGSTYYADSVKGRFTISRDNAKNTVYLQMNILKPEDTAVYYCNADANDDGRFGGYIKYDYWGQGTQVTVSS | low polyreactivity
29 | QVQLVESGGGLVQAGGSLRLSCAASGFTFSRNAMGWYRQAPGKERELVAAISQSGGSTYYADSVKGRFTISRDNAKNTVYLQMNSRKPEDTAVYYCAATGWIIIKPTSSLKFNYWGQGTQVTVSS | high polyreactivity
30 | QVQLVESGGGLVQAGGSHRLSCAASGIIIEGNVMGWSRQSPGKQSELVAAITSDTSTNYGDSVKGRFTISRDNATNTVYLQMNSLKPEDTGVYYCNAVIGTDYFYSGTAEFYYWGQGTQVTVSS | low polyreactivity
31 | QVQLVESGGGLVQAGVSLRLSCAASGFTIKLYAMGWYRQAPGKERELVAAISSSGGSTYYADSVKGRFTISRDNAKNTVYLQMISLKPEDTAVYYCAARTRHVHYGYWGQGTQVTVSS | high polyreactivity
32 | QVQLVESGGGLVQAGGSHRLSCAASGITFPYYAMGCYRQAPVKERELVAAISSSGGSTYYADSVKGRFTISRDNAKNTVYLQMNSLKPEDTAVYYCNKRYVVYPGNYWRYDYWGQGTQVTVSS | high polyreactivity
33 | QVQLQESGDGLVQAVGSLRLSCAASGYSSGYYYMGWYRQAPGKERELVAGIDAFGISTNYADCVKGRFTISRDNAKNTVYLQMTSLKPEDTAVYYCAARPDGDRLFSYWGQGTQVTVSI | low polyreactivity
34 | QVQLVESGRGLVQAGGSLRLSCEDSGNIFPYYAMGWYRQAPGKERELVAAISGSGDRTYYADSVNGRFTISRDNAKNTVYLQMNSLKPEDTAVYYCAAYRRYYGWYDYWGQGTQVTVSS | high polyreactivity
35 | QVQLVESGGGLVQAGGSLRLSCAASGRIFVRYAMGWYRQAPGKERELVAAIRWSGGRTYYADSVKGRFTISRDNAKNTFYLQMNSLKPEDTAVYYCAVRYRDLFGYWGQGTQVTVSS | high polyreactivity
36 | QVQLVESGGGLVQAGGRLRLSCAASGYIFSYYAMAWYRQAPGKERELVASITSSGGSTYYADSVKGRFTISRDNAKNTVYLQMNSLKPEVTAVSYCAAYSLYGYDYWGQGTQVTVSS | low polyreactivity
37 | QVQLVESGGGLVQAGGSLRLSCAASGRTFSYNAMGWYRQAPGKERELVAAISWSDGSTYYADSVKGRFTISRDNAKNTVYLQMNSLKPEDTAVYYCAVESFYRHASLYDNWGQGTQVTVSS | high polyreactivity
38 | QVQLVESVGGLVQAGGSLRLSCAASGRIFYNYVMGWYRQAPGKERELVAAISSDGGRTYYADSVKGRFTISRDNAKNTVYLQMNSLKPEDTAVYYCAAEWPYGGNGPGHTYEYWGQGTQVTVSS | high polyreactivity
39 | QVQLVESGGGLVQAGGSLRLSCAASGSTFVPNDMGGYRQAPGKERELVAAISYSGGSTYYADSVKGRFTISRDNAKNTVYLQMNSLKPEDTAVYYCAADKYLGELDYWGQGTQVTVSS | low polyreactivity
40 | HVQLVDSGGGLVQAGGSLRLTCAASGNIFVPYAMGWYRQAPGKERELVAAINGGGSTNYADSLKGRFTISRDNAKNTVYLQMNSLKPEDTAVYYCAAVWYFLSLWYDYWGQGTQVTVSS | high polyreactivity
41 | QVQLVESGGGLVQAGGSLRLSCAASGRTFSNAMGWYRQAPGKERELVADISSGGSTNYADSVKGRFTISRDNAKNTVYLQMNSLKPEDTAVYYCAAVSGSLYGYSDDYWGQGTQVTVSS | low polyreactivity
42 | QVQLVETGGGLVQAGGSLRLRCAASGSIFGGYAMGWYRQAPGKERELVAAISSGGSTYYADSVKGRFTISRDNAKNTVYLQMNSLKPEDTAVYYCATSTYAYRRNSYYYTRPRFGYWGQGTQVTVSS | high polyreactivity
43 | QVQLVESGAGLVQAGGSLRLSCAPSGIIFYWNTMAWYRQAPGKERELVAAISSRSGSTYYADSVKGRFTISRDNAKNTVYLQMISLKPEDTAVFYCAARYGYRYADKGTDYGYWGQGTQVTVSS | high polyreactivity
